This is an account of results in US20250381255A1 (ANOKION, published 2025).

Numbering of substitutions follows the chain as printed.

Assay [1] has as its target T1, human asialoglycoprotein receptor 1 (ASGR1) extracellular domain (human, UniProt P07306 62-291).
T1 construct: The methods speak of 'human ASGR1-His'; The results paragraph says only 'ASGR1'; also called human ASGR1-His; ASGR1 ECD
T1 sequence: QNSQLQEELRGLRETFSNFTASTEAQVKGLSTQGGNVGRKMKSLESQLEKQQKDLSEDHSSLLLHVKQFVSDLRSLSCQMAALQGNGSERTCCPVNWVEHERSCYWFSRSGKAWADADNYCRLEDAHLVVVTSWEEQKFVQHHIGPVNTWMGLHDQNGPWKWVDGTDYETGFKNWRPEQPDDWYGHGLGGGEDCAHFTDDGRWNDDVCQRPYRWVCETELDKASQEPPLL
Kind of assay: apparent KD from biochemical characterisation; method not named for this value (Example 1 describes Octet BLI: IgG on AHC sensors, 100 nM ASGR1, 1:1 model).

The target in assay [2] is T1, human asialoglycoprotein receptor 1 …. Kind of assay: apparent KD from biochemical characterisation; method not named for this value (Example 1 describes Octet BLI: IgG on AHC sensors, 100 nM ASGR1, 1:1 model); mAb-60819.
The target is the same in assay [3]. Kind of assay: apparent KD from biochemical characterisation; method not named for this value (Example 1 describes Octet BLI: IgG on AHC sensors, 100 nM ASGR1, 1:1 model); mAb-60869.
Assay [4] shares this target. Kind of assay: apparent KD from biochemical characterisation; method not named for this value (Example 1 describes Octet BLI: IgG on AHC sensors, 100 nM ASGR1, 1:1 model); mAb-60856.

B1: mAb-60881 (antibody, V domains shown)
VH: QVQLQESGPGLVKPSETLSLTCAVSGYSISSGYYWGWIRQPPGKGLEWIGSIYHSGSTYYNPSLKSRVTISVDTSKNQFSLKLSSVTAADTAVYYCAREAGYPERGYGMDVWGQGTTVTVSS
VL: EIVMTQSPATLSVSPGERATLSCRASQSVSSNLAWYQQKPGQAPRLLIYGASTRATGIPARFSGSGSGTEFTLTISSLQSEDFAVYYCQQYFHHPFTFGGGTKVEIK
notes: Made as IgG
Consider B1, for which the Kd in assay [1] was roughly 3 nM.

B2: mAb-60819 (antibody, V domains shown)
VH: QVQLVQSGAEVKKPGSSVKVSCKASGGTFSNYAISWVRQAPGQGLEWMGGIIPIFGTANYAQKFQGRVTITADESTSTAYMELSSLRSEDTAVYYCAREARVAGTRPRGFDIWGQGTMVTVSS
VL: EIVLTQSPATLSLSPGERATLSCRASQSVSSYLAWYQQKPGQAPRLLIYDASNRATGIPARFSGSGSGTDFTLTISSLEPEDFAVYYCQQLNNFPPTFGGGTKVEIK
Consider B2, for which, in assay [2], the Kd came to 9.29 nM.

B3: mAb-60869 (antibody, V domains shown)
VH: EVQLLESGGGLVQPGGSLRLSCAASGFTFSNYAMSWVRQAPGKGLEWVSAISGSGGSTYHADSVKGRFTISRDNSKNTLYLQMNSLRAEDTAVYYCARDAPYRGGHYFDLWGRGTLVTVSS
VL: B2 VL with N92A, N93S, F94W
notes: also called anti-ASGR1 antibody mAb-60869
B3: in assay [3], the Kd was 3.22 nM.

B4: mAb-60856 (antibody, V domains shown)
VH: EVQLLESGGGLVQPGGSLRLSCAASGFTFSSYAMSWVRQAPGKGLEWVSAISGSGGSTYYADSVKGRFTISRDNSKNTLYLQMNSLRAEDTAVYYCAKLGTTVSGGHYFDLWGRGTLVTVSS
VL: B2 VL with N53K, L91D, N92S, F94H, P96L
notes: also called anti-ASGR1 antibody mAb-60856
Take B4: the Kd in assay [4] turned out to be 9.29 nM.
